In patent US20210115102:

Key:
[1] = test system: ALU30-13
[2] = test system: CTSL1_1 FRET substrate (ALFKSSFP)
[3] = test system: ALU30-10
[4] = test system: ALU30-16
[5] = test system: ALU30-6
[6] = test system: ALU30-17
[7] = test system: ALU30-11
[8] = test system: ALU30-12
[9] = test system: ALU30-15
[10] = test system: ALU30-9
[11] = test system: ALU30-8
[12] = test system: ALU30-1
[13] = test system: ALU30-5
[14] = test system: ALU30-18
[15] = test system: ALU30-7
[16] = test system: CTSL1_2 9-mer FRET substrate Mca-ALFFSSPPSK-Dnp
[17] = test system: CTSL1_2 8-mer FRET substrate Mca-ALFFSSPPK-Dnp
[18] = test system: ALU30-14
Chain of ALU30-14 (chain, as listed by the source): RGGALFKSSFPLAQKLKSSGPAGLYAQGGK

Chain of Cathepsin L (CTSL1), recombinant human (chain, as listed by the source): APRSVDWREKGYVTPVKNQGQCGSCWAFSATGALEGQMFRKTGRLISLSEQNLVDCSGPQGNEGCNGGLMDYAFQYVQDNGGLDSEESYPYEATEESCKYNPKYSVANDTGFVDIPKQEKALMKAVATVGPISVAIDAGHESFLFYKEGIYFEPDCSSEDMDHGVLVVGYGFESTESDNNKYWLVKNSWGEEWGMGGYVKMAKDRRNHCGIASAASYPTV
Chain of ALU30-18 (chain, as listed by the source): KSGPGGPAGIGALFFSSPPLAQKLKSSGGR
Chain of ALU30-6 (chain, as listed by the source): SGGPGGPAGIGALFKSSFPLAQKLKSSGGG
Chain of ALU30-15 (chain, as listed by the source): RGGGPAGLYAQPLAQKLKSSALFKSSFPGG
Chain of ALU30-13 (chain, as listed by the source): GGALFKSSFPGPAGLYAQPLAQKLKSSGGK
Chain of ALU30-16 (chain, as listed by the source): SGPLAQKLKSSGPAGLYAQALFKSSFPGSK
Chain of ALU30-8 (chain, as listed by the source): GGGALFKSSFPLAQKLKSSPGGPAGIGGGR
Chain of ALU30-1 (chain, as listed by the source): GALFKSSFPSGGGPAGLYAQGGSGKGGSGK
Chain of ALU30-12 (chain, as listed by the source): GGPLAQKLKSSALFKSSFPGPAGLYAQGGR
Chain of ALU30-9 (chain, as listed by the source): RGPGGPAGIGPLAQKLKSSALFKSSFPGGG
Chain of ALU30-11 (chain, as listed by the source): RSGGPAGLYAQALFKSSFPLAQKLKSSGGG
Chain of ALU30-5 (chain, as listed by the source): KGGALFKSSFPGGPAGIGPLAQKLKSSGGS
Chain of ALU30-17 (chain, as listed by the source): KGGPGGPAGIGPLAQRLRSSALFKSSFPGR
Chain of ALU30-10 (chain, as listed by the source): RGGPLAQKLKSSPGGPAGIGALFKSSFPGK
Chain of ALU30-7 (chain, as listed by the source): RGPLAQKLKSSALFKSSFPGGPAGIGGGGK

Cathepsin L (CTSL1), recombinant human
30-mer substrate degradation (MSP-MS) [1]: Peptides bearing the MMP14_1 motif with CTSL1_1 and ADAM17_2 were slightly lower efficiency.
FRET substrate cleavage [2]: CTSL1 cleaves the FRET substrate bearing the CTSL1_1 motif highly efficiently
30-mer substrate degradation (MSP-MS) [3]: The most efficiently cleaved peptides were those containing the FAPa_1, CTSL1_1 and ADAM17_2 motifs, in multiple orders.
30-mer substrate degradation (MSP-MS) [4]: Peptides bearing the MMP14_1 motif with CTSL1_1 and ADAM17_2 were slightly lower efficiency.
30-mer cleavage (substrate disappearance and product formation) [5]: Both peptides showed rapid disappearance of substrate (squares) and product formation from cleavage at the target scissile bond
30-mer substrate degradation (MSP-MS) [5]: The most efficiently cleaved peptides were those containing the FAPa_1, CTSL1_1 and ADAM17_2 motifs, in multiple orders.
30-mer substrate degradation (MSP-MS) [6]: CTSL1 treatment of the 30-mer peptide library produced cleavages in all peptides bearing a CTSL1_1 or CTSL1_2 motif
30-mer substrate degradation (MSP-MS) [7]: Peptides bearing the MMP14_1 motif with CTSL1_1 and ADAM17_2 were slightly lower efficiency.
30-mer substrate degradation (MSP-MS) [8]: Peptides bearing the MMP14_1 motif with CTSL1_1 and ADAM17_2 were slightly lower efficiency.
30-mer substrate degradation (MSP-MS) [9]: Peptides bearing the MMP14_1 motif with CTSL1_1 and ADAM17_2 were slightly lower efficiency.
cleavage efficiency of 30-mer library peptides [9]: lower CTSL1 activity
30-mer substrate degradation (MSP-MS) [10]: The most efficiently cleaved peptides were those containing the FAPa_1, CTSL1_1 and ADAM17_2 motifs, in multiple orders.
30-mer substrate degradation (MSP-MS) [11]: The most efficiently cleaved peptides were those containing the FAPa_1, CTSL1_1 and ADAM17_2 motifs, in multiple orders.
30-mer substrate degradation (MSP-MS) [12]: CTSL1 treatment of the 30-mer peptide library produced cleavages in all peptides bearing a CTSL1_1 or CTSL1_2 motif
30-mer substrate degradation (MSP-MS) [13]: The most efficiently cleaved peptides were those containing the FAPa_1, CTSL1_1 and ADAM17_2 motifs, in multiple orders.
30-mer cleavage (substrate disappearance and product formation) [14]: Both peptides showed rapid disappearance of substrate (squares) and product formation from cleavage at the target scissile bond
30-mer substrate degradation (MSP-MS) [14]: CTSL1 treatment of the 30-mer peptide library produced cleavages in all peptides bearing a CTSL1_1 or CTSL1_2 motif
30-mer substrate degradation (MSP-MS) [15]: The most efficiently cleaved peptides were those containing the FAPa_1, CTSL1_1 and ADAM17_2 motifs, in multiple orders.
FRET substrate cleavage, catalytic efficiency [16]: This 9-mer FRET substrate bearing the CTSL1_2 motif produced comparable catalytic efficiency to the CTSL1_1 motif
FRET substrate cleavage [17]: the new CTSL1_2 motif was not cleaved in the context of an 8-mer FRET peptide
30-mer substrate degradation (MSP-MS) [18]: Peptides bearing the MMP14_1 motif with CTSL1_1 and ADAM17_2 were slightly lower efficiency.
